Experiments:
[1] = substrate: O=C(O)CCC(=O)C(=O)O; experiment: MALDI-MS peptide hydroxylation assay, steady-state kinetics; assay type: biochemical, Escherichia coli; conditions: co-substrates uL16 peptide fragment and O2; Fe(II), ascorbate; temperature and pH for this row not explicitly stated in main text
[2] = substrate: O=C(O)CCC(=O)C(=O)O; experiment: as above; assay type: biochemical, Rhodothermus marinus; conditions: co-substrates uL16RM peptide fragment and O2, Fe(II), ascorbate, 50 mM HEPES pH 7.5, 37 °C

Protein | Km [1] | Km [2]
ycfDEC (Escherichia coli K-12) (protein, purified E. coli YcfD; construct not described in main text) MEYQLTLNWPDFLERHWQKRPVVLKRGFNNFIDPISPDELAGLAMESEVDSRLVSHQDGKWQVSHGPFESYDHLGETNWSLLVQAVNHWHEPTAALMRPFRELPDWRIDDLMISFSVPGGGVGPHLDQYDVFIIQGTGRRRWRVGEKLQMKQHCPHPDLLQVDPFEAIIDEELEPGDILYIPPGFPHEGYALENAMNYSVGFRAPNTRELISGFADYVLQRELGGNYYSDPDVPPRAHPADVLPQEMDKLREMMLELINQPEHFKQWFGEFISQSRHELDIAPPEPPYQPDEIYDALKQGEVLVRLGGLRVLRIGDDVYANGEKIDSPHRPALDALASNIALTAENFGDALEDPSFLAMLAALVNSGYWFFEG | 8.6 ± 3.4 µM | 
ycfDRM (Rhodothermus marinus DSM 4252) (protein, pET28a NdeI/SacI, expressed in E. coli BL21(DE3); HisTrap and Superdex 75 purified) MQLPETILGGLAPEEFLANYWQKRPLLIRQALPGFRSPITPEELAGLACEEGVTARLILEKGGAYPWEVRYGPFEPEDFVALPPTHWTLLVQEVDRLVPEVAALLETVRFVPNWRLDDIMVSYAPEGGTVGAHIDNYDVFLVQAWGRRRWQINHRPVEREELVPGLEVRLLAHFEPDAEWILEPGDVLYLPPRIPHYGVALEDCMTFSIGFRAPDQAELAEAMPRMAAWLDGGRRYADPDLTPADEPGEITPEALDQIQALLRALIDDRERLARWFGCIITEPRRGLPPEPPGRPLSAKQLHRRLQQGATLRRNAIPELAYVRHADGSATLFASGEAYELSPELADVAPLLTGRRPLTAETLRPWLERDDFLELLQTLIHSGILSLIPARKR |  | 71.1 ± 12.2 µM

— paper PMC5862935, “YcfDRM is a thermophilic oxygen-dependent ribosomal protein uL16 oxygenase” (Extremophiles, 2018)
